Reference: the supplement of paper PMC7125110
± gives the standard error. This sample holds only a part of the variants without activity.

B1: glmS ribozyme (parent)
chain: AUAAAAGCGCCAGAACUACAGAAAUGUAGUUGACGAGGAGGAGGUUUAUCGAAUUUUCGGCGGAUGCCUCCAAA

Variants of: B1
Test: self-cleavage kobs at 10000 uM GlcN6P; higher = faster cleavage; RNA array
Settings: with glucosamine-6-phosphate
Procedure, shortened: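 Glucosamine-6-phosphate, from 40 μM to 10 mM in HEPES/KCl/Mg(OAc)2 buffer, was flowed over sequenced MiSeq chips carrying barcoded ribozyme variants transcribed in situ by E. coli RNA polymerase. A hybridised Cy3 probe tracked the variants at 37 °C as tiles were imaged over ~14 h. kobs, kcat and KM were obtained by fitting normalised per-tile medians to exponential decays and then applying weighted Michaelis–Menten fits across concentrations.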

Variant	self-cleavage kobs at 10000 uM GlcN6P [s⁻¹]
AUAAAAGCGCCAGAACUACAGAAAUGUAGUUGACGAGGAGGAGGUUUUUCGCAUUUUCGACGGCUGCCUCCAAA [A48U A52C G60A A64C]	< 1e-05
AUAAAAGCGCCAGAACUACAGAAAUGUAGUUGACGAGGAGGAGGUUUAUCGAAUUUUCGGCGGCGGCCUCCAAA [A64C U65G]	4.42e-05 ± 1.1e-05
AUAAAAGCGCCAGAACUACAGAAAUGUAGUUGACGAGGAGGAGGUUUUUCGAAUUAUCGGCGGAUGCUUCCAAA [A48U U56A C68U]	7.52e-05 ± 1.8e-05
AUAAAAGCGCCAGAACUACAGAAAUGUAGUUGACGAGGAGGAGGUUUAUCGAAUUGUUGGCGGAUGACUCCAAA [U56G C58U C67A]	3.62e-05 ± 1.5e-05
AUAAAAGCGCCAGAACUACAGAAAUGUAGUUGACGAGGAGGAGGUUUCUCGAAUUUUCGGCUGAUGUCUCGAAA [A48C G62U C67U C71G]	< 1e-05
AUAAAAGCGCCAGAACUACAGAAAUGUAGUUGACGAGGAGGAGGGUUAUCGAGUUUUCGGCGGUUGCCUCCAAA [U45G A53G A64U]	8.08e-05 ± 1.8e-05
AUAAAAGCGCCAGAACUACAGAAAUGUAGUUGACGAGGAGGAGGUUUAUCGAAUUCGCUGCGGAUGCCUCCAAA [U56C U57G G59U]	< 1e-05
AUAAAAGCGCCAGAACUACAGAAAUGUAGUUGACGAGGAGGAGGUUUAUCGAAUUUCCGGCUGAUGCCUCCAAA [U57C G62U]	< 1e-05
AUAAAAGCGCCAGAACUACAGAAAUGUAGUUGACGAGGAGGAGGUUUACCGAAUUUUCGGCGGAUGCAUCCAAA [U49C C68A]	< 1e-05
AUAAAAGCGCCAGAACUACAGAAAUGUAGUUGACGAGGAGGAGGUUUAUCGAUUUUUCGGCGGAUGCCUGGAAA [A53U C70G C71G]	2.8e-05 ± 1.2e-05
AUAAAAGCGCCAGAACUACAGAAAUGUAGUUGACGAGGAGGAGGUUUCUCGAAUUUUCGGGGGAUGCCUGCAAA [A48C C61G C70G]	< 1e-05
AUAAAAGCGCCAGAACUACAGAAAUGUAGUUGACGAGGAGGAGGUUUAUCGAAGUUUAGGCGGAUGCCUCUAAA [U54G C58A C71U]	0.000213 ± 4.7e-05
AUAAAAGCGCCAGAACUACAGAAAUGUAGUUGACGAGGAGGAGGUUUAUCGAAUGUUCGGCGGAUGCAUCUAAA [U55G C68A C71U]	2.99e-05 ± 1.4e-05
AUAAAAGCGCCAGAACUACAGAAAUGUAGUUGACGAGGAGGAGUUUUAUCGAAUUUUCGGCGGUUGGCUCCAAA [G44U A64U C67G]	6.97e-05 ± 1.6e-05
AUAAAAGCGCCAGAACUACAGAAAUGUAGUUGACGAGGAGGAGGCUUAUCGAAUUUUCGGCGGAGGACUCCAAA [U45C U65G C67A]	0.000786 ± 0.00016
AUAAAAGCGCCAGAACUACAGAAAUGUAGUUGACGAGGAGGAGGUUUAUCGAAGUUUCGGCGGAUUCUUCCAAA [U54G G66U C68U]	0.000154 ± 3.1e-05
AUAAAAGCGCCAGAACUACAGAAAUGUAGUUGACGAGGAGGAGGUUAAUCGAGUAUUCGGCGGAUCCCUCCAAA [U47A A53G U55A G66C]	0.000375 ± 5.9e-05
AUAAAAGCGCCAGAACUACAGAAAUGUAGUUGACGAGGAGGAGGGUUAUCGAAUCUUCGACGUAUGCCUCCAAA [U45G U55C G60A G63U]	< 1e-05
AUAAAAGCGCCAGAACUACAGAAAUGUAGUUGACGAGGAGGAGGUUUAUAGAAUUUUCGGCCGAUGCCUCCAAA [C50A G62C]	< 1e-05
AUAAAAGCGCCAGAACUACAGAAAUGUAGUUGACGAGGAGGAGGUUUAUCGUAUUUUGGGCGGAGGCCUCCAAA [A52U C58G U65G]	< 1e-05
AUAAAAGCGCCAGAACUACAGAAAUGUAGUUGACGAGGAGGAGGUUUUUCGAAUUUUCGGCGGAUGGCUCCAAA [A48U C67G]	4.58e-05 ± 8.4e-06
